T1: CD20 (UniProt P11836 1-297, limits assumed)
T1 sequence (looked up): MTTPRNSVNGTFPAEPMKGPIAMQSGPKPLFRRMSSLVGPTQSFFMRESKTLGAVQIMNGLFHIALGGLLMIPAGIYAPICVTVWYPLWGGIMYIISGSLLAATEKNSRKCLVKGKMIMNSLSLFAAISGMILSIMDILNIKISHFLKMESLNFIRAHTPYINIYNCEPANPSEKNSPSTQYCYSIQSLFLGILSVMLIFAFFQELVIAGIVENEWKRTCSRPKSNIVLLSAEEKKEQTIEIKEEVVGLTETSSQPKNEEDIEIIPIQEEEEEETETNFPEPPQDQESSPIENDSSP


Key:
[1] = molecular target: T1, CD20; assay: cell-based or functional assay
[2] = molecular target: T1, CD20; assay: flow cytometry on Ramos cells, anti-human kappa AF647 detection
Method: The cells were split every 2-3 days as necessary to maintain the cell density between 0.2-2.0×10⁶ cells/mL. […] The antibody cell mixtures were incubated for 30 minutes on ice in the dark. […] Fluorescent staining data was acquired on FACSCalibur using standard settings and analyzed with FloJo 10. Mean fluorescent intensity (MFI) values were imported into GraphPad Prism, and EC50 or KD values were calculated from the resulting curve fit.

| Binder | TDCC on CA46 cells with CD8+ T cells, EC50 [1] [pM] | TDCC on Ramos cells with CD8+ T cells, % Max. [1] [%] | TDCC on Ramos cells with CD8+ T cells, EC50 [1] [pM] | TDCC on normal B cells with CD8+ T cells, EC50 [1] [pM] | EC50 [2] [nM] |
| --- | --- | --- | --- | --- | --- |
| RTX-IgM V15J (wt) (bispecific antibody) VH: QVQLQQPGAELVKPGASVKMSCKASGYTFTSYNMHWVKQTPGRGLEWIGAIYPGNGDTSYNQKFKGKATLTADKSSSTAYMQLSSLTSEDSAVYYCARSTYYGGDWYFNVWGAGTTVTVSA VL: QIVLSQSPAILSASPGEKVTMTCRASSSVSYIHWFQQKPGSSPKPWIYATSNLASGVPVRFSGSGSGTSYSLTISRVEAEDAATYYCQQWTSNPPTFGGGTKLEIKR not shown | 14 | 98 | 9 | 9 | – |
| RTX-IgM V15J (N93D) (bispecific antibody) VH: QVQLQQPGAELVKPGASVKMSCKASGYTFTSYNMHWVKQTPGRGLEWIGAIYPGNGDTSYNQKFKGKATLTADKSSSTAYMQLSSLTSEDSAVYYCARSTYYGGDWYFNVWGAGTTVTVSA VL: QIVLSQSPAILSASPGEKVTMTCRASSSVSYIHWFQQKPGSSPKPWIYATSNLASGVPVRFSGSGSGTSYSLTISRVEAEDAATYYCQQWTSDPPTFGGGTKLEIKR not shown | – | 60 | 722 | – | – |
| RTX-IgM V15J (N93E) (bispecific antibody) VH: QVQLQQPGAELVKPGASVKMSCKASGYTFTSYNMHWVKQTPGRGLEWIGAIYPGNGDTSYNQKFKGKATLTADKSSSTAYMQLSSLTSEDSAVYYCARSTYYGGDWYFNVWGAGTTVTVSA VL: QIVLSQSPAILSASPGEKVTMTCRASSSVSYIHWFQQKPGSSPKPWIYATSNLASGVPVRFSGSGSGTSYSLTISRVEAEDAATYYCQQWTSEPPTFGGGTKLEIKR not shown | – | 80 | 107 | 145 | – |
| RTX-IgM + J N93K (antibody, Pentameric IgM with wild-type J-chain; IgM constant region of the construct not specified) VH: QVQLQQPGAELVKPGASVKMSCKASGYTFTSYNMHWVKQTPGRGLEWIGAIYPGNGDTSYNQKFKGKATLTADKSSSTAYMQLSSLTSEDSAVYYCARSTYYGGDWYFNVWGAGTTVTVSA VL: QIVLSQSPAILSASPGEKVTMTCRASSSVSYIHWFQQKPGSSPKPWIYATSNLASGVPVRFSGSGSGTSYSLTISRVEAEDAATYYCQQWTSKPPTFGGGTKLEIKR not shown | – | – | – | – | 0.88 |
| RTX-IgM + J N93A (antibody, Pentameric IgM with wild-type J-chain; IgM constant region of the construct not specified) VH: QVQLQQPGAELVKPGASVKMSCKASGYTFTSYNMHWVKQTPGRGLEWIGAIYPGNGDTSYNQKFKGKATLTADKSSSTAYMQLSSLTSEDSAVYYCARSTYYGGDWYFNVWGAGTTVTVSA VL: QIVLSQSPAILSASPGEKVTMTCRASSSVSYIHWFQQKPGSSPKPWIYATSNLASGVPVRFSGSGSGTSYSLTISRVEAEDAATYYCQQWTSAPPTFGGGTKLEIKR not shown | – | – | – | – | 0.69 |
| RTX-IgM + J N93R (antibody, Pentameric IgM with wild-type J-chain; IgM constant region of the construct not specified) VH: QVQLQQPGAELVKPGASVKMSCKASGYTFTSYNMHWVKQTPGRGLEWIGAIYPGNGDTSYNQKFKGKATLTADKSSSTAYMQLSSLTSEDSAVYYCARSTYYGGDWYFNVWGAGTTVTVSA VL: QIVLSQSPAILSASPGEKVTMTCRASSSVSYIHWFQQKPGSSPKPWIYATSNLASGVPVRFSGSGSGTSYSLTISRVEAEDAATYYCQQWTSRPPTFGGGTKLEIKR not shown | – | – | – | – | 0.52 |
